The values below come from patent publication US20250027068.

Positions count from the first letter of the chain named.

B1: PRT-308 (protein)
chain: MQITSVWTKGVTPLTPEQFRENNEDVIHAPYLAHQGWYDITKAFDGKDNLLCGAATAGNMLHWWFDQNKTEIEAYLSKHPEKQKIIFNNQELFDLKAAIDTKDSQTNSQLFNYFRDKAFPNLSARQLGVMPDLVLDMFINGYYLNVGKTQSTDVNRPYQDKDKRGGIFDAVFTRGDQTTLLTARHDLKNKGLNDISTIIKQELTEGRALALSHTYANVSISHVINLWGADFDAEGNLEAIYVTDSDANASIGMKKYFVGRNAHGHVAISAKKIEGENIGAQVLGLFTLSLGKDIWQKLS
B2: PRT-310 (protein)
chain: B1 chain with N112D, G147F, L290S, I294Q
B3: PRT-309 (protein)
chain: B1 chain with N88G, N112D, L290S, I294Q
B4: PRT-284 (protein)
chain: MVTSVWTKGVTPPAKFTQGEDVFHAPYVANQGWYDITKTFNGKDDLLCGAATAGNMLHWWFDQNKEKIEAYLKKHPDKQKIMFGDQELLDVRKVINTKGDQTNSELFNYFRDKAFPNLSARRIGVMPDLVLDMFINGYYLNVYKTQTTDVNRTYQEKDRRGGIFDAVFTRGDQSKLLTSRHDFKEKNLKEISDLIKKELTEGKALGLSHTYANVRLNHVINLWGADFDSNGNLKAIYVTDSDSNASIGMKKYGVGVNSAGKVAISAKEIKEDNIGAQVLGLFTLSTGQDSWNQTN
B5: PRT-316 (protein)
chain: MTITSVWTKGVTPPTPEDFRKNNEDVLHAPYVANQGWYDITKTFDGKDNLLCGAATAGNMLHWWFDQNKEEIERYLKKHPEKQKIIFNNQELFDVKAAIDTKDSQTNSKLFNYFRDKAFPNLSARQLGVMPDLVLDMFINGYYLNLGKTQSTDVNRPYQDKDKRGGIFDAVFTRGDQTTLLTARHDLKNKGLNEISDLIKQELTEGKALALSHTYANVRINHVINLWGADFDAEGNLIAIYVTDSDANASIGMKKYFVGRNANGKVAISAKKIEGDNIGAQVLGLFTLSTGQDIWQKLS
B6: PRT-326 (protein)
chain: B5 chain with K21E, N88G, N112D, N236E, A249P, I294Q
B7: PRT-333 (protein)
chain: B5 chain with K21E, N88G, N121G, M130F, D176V, A249P
B8: PRT-325 (protein)
chain: B5 chain with K21E, N88G, N112D, N236E, A249P
B9: PRT-324 (protein)
chain: B5 chain with K21E, N88G, A249P
B10: PRT-317 (protein)
chain: B5 chain with K21E, T290L
B11: PRT-318 (protein)
chain: B5 chain with K21Y, L92W, N112D, R260V, T290L
B12: PRT-332 (protein)
chain: B5 chain with K21E, L92W, N121G, M130F, G147P, D176V, F257A, R260V
B13: PRT-292 (protein)
chain: MVTSVWTKGVTPPADFTQGEDVFHAPYDANQGWYDITKTFNGKDDLLCGAATAGNMLHWWFDQNKEYIEAYLKKHPEKQKIMFGDQELLDVRKAINTKGSQKNSELFNYFRDKAFPNLSARRLGVMPDLVLDMFINGYYLNVTKTQTTDVNRTYQEKDKRGGIFDAVFTRGDQSKLLTSRHDFKEKGLKEISDLIKQELTEGKALGLSHTYANVRISHVINLWGADFDSDGNLKAIYVTDSDSNASIGMKKYFVGVNSAGKVAISAKEIKEDNIGAQVLGLFTLSTGQDIWNQTN
B14: PRT-302 (protein)
chain: B13 chain with A14T, T17I, Q18K, D28K, N30G, I216L, S217N, F253G
B15: PRT-293 (protein)
chain: B13 chain with D28V, I216L, S217N, F253G
B16: PRT-300 (protein)
chain: B13 chain with A14T, T17I, Q18K, D28K, N30G, I216L, S217N, A259S
B17: PRT-301 (protein)
chain: B13 chain with A14T, T17I, Q18K, N30G
B18: PRT-294 (protein)
chain: B13 chain with F253G

The target of the data set is pooled human IgG (human IgG1,2,3 and 4).
Turning to B1, the Enzyme Activity Endpoint Assay: Fab′2 is 405 ng/µL, the Enzyme Activity Endpoint Assay: Fc was 204 ng/µL, the Enzyme Activity Endpoint Assay: IgG is 59 ng/µL and the Enzyme Activity Endpoint Assay: scIgG was 106 ng/µL.
On to B2, for which the Enzyme Activity Endpoint Assay (purified): Fab'2 came to 1220 ng/µL, the Enzyme Activity Endpoint Assay (purified): Fc came out at 488 ng/µL, the Enzyme Activity Endpoint Assay (purified): IgG was determined as 0 ng/µL and the Enzyme Activity Endpoint Assay (purified): scIgG was 0 ng/µL.
In turn, B3 had an Enzyme Activity Endpoint Assay: Fab′2 of 0 ng/µL, an Enzyme Activity Endpoint Assay: Fc of 0 ng/µL, an Enzyme Activity Endpoint Assay: IgG of 1650 ng/µL and an Enzyme Activity Endpoint Assay: scIgG of 0 ng/µL.
B4 registered an Enzyme Activity Endpoint Assay: Fab′2 of 72 ng/µL, an Enzyme Activity Endpoint Assay: Fc of 184 ng/µL, an Enzyme Activity Endpoint Assay: IgG of 45 ng/µL and an Enzyme Activity Endpoint Assay: scIgG of 483 ng/µL.
The corresponding values for B5 are 772 ng/µL, 347 ng/µL, 80 ng/µL and 0 ng/µL.
B6 had an Enzyme Activity Endpoint Assay (purified): Fab'2 of 588 ng/µL, an Enzyme Activity Endpoint Assay (purified): Fc of 429 ng/µL, an Enzyme Activity Endpoint Assay (purified): IgG of 458 ng/µL and an Enzyme Activity Endpoint Assay (purified): scIgG of 0 ng/µL.
Protein B7 yielded an Enzyme Activity Endpoint Assay (purified): Fab'2 of 794 ng/µL, an Enzyme Activity Endpoint Assay (purified): Fc of 448 ng/µL, an Enzyme Activity Endpoint Assay (purified): IgG of 0 ng/µL and an Enzyme Activity Endpoint Assay (purified): scIgG of 0 ng/µL.
Take B8: the Enzyme Activity Endpoint Assay (purified): Fab'2 worked out at 930 ng/µL, the Enzyme Activity Endpoint Assay (purified): Fc came out at 466 ng/µL, the Enzyme Activity Endpoint Assay (purified): IgG is 78 ng/µL and the Enzyme Activity Endpoint Assay (purified): scIgG turned out to be 0 ng/µL.
For the protein B9, the Enzyme Activity Endpoint Assay: Fab′2 was 665 ng/µL, the Enzyme Activity Endpoint Assay: Fc was determined as 291 ng/µL, the Enzyme Activity Endpoint Assay: IgG came to 0 ng/µL and the Enzyme Activity Endpoint Assay: scIgG worked out at 0 ng/µL.
In turn, B10 returned an Enzyme Activity Endpoint Assay: Fab′2 of 798 ng/µL, an Enzyme Activity Endpoint Assay: Fc of 453 ng/µL, an Enzyme Activity Endpoint Assay: IgG of 0 ng/µL and an Enzyme Activity Endpoint Assay: scIgG of 0 ng/µL.
With B11, the Enzyme Activity Endpoint Assay (purified): Fab'2 turned out to be 641 ng/µL, the Enzyme Activity Endpoint Assay (purified): Fc turned out to be 365 ng/µL, the Enzyme Activity Endpoint Assay (purified): IgG was found to be 110 ng/µL and the Enzyme Activity Endpoint Assay (purified): scIgG was 100 ng/µL.
For B12, the Enzyme Activity Endpoint Assay: Fab′2 came out at 409 ng/µL, the Enzyme Activity Endpoint Assay: Fc amounted to 277 ng/µL, the Enzyme Activity Endpoint Assay: IgG turned out to be 0 ng/µL and the Enzyme Activity Endpoint Assay: scIgG was found to be 177 ng/µL.
For B13 the same measures were 758 ng/µL, 359 ng/µL, 0 ng/µL and 0 ng/µL.
B14 returned an Enzyme Activity Endpoint Assay (purified): Fab'2 of 1130 ng/µL, an Enzyme Activity Endpoint Assay (purified): Fc of 461 ng/µL, an Enzyme Activity Endpoint Assay (purified): IgG of 0 ng/µL and an Enzyme Activity Endpoint Assay (purified): scIgG of 0 ng/µL.
The protein B15 showed an Enzyme Activity Endpoint Assay: Fab′2 of 11 ng/µL, an Enzyme Activity Endpoint Assay: Fc of 0 ng/µL, an Enzyme Activity Endpoint Assay: IgG of 1260 ng/µL and an Enzyme Activity Endpoint Assay: scIgG of 0 ng/µL.
Take B16: the Enzyme Activity Endpoint Assay: Fab′2 was determined as 333 ng/µL, the Enzyme Activity Endpoint Assay: Fc was determined as 274 ng/µL, the Enzyme Activity Endpoint Assay: IgG was 276 ng/µL and the Enzyme Activity Endpoint Assay: scIgG amounted to 43 ng/µL.
For B17 the same measures were 0 ng/µL, 0 ng/µL, 1680 ng/µL and 0 ng/µL.
As to B18, the Enzyme Activity Endpoint Assay (purified): Fab'2 stood at 651 ng/µL, the Enzyme Activity Endpoint Assay (purified): Fc was 456 ng/µL, the Enzyme Activity Endpoint Assay (purified): IgG worked out at 506 ng/µL and the Enzyme Activity Endpoint Assay (purified): scIgG worked out at 5 ng/µL.
